Positions of bridges follow the written chain, without caps; N, C: chain ends. Non-standard residues stand in square brackets, D forms with d.
Key:
[1] = molecular target: T1, human MUC1 in human carcinoma cells (human, UniProt P15941 1097-1255); experiment: cell-based or functional assay
T1 sequence: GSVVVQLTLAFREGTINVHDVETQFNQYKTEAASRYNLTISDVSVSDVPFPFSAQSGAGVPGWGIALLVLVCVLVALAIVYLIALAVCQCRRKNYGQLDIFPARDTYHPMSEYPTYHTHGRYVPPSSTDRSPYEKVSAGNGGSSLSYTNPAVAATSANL

[2] = molecular target: human MUC1 in human carcinoma cells (human) (UniProt P15941); experiment: cell-based or functional assay
[3] = molecular target: dopamine D1 receptor (Homo sapiens (Human)) (UniProt P21728); experiment: receptor binding screen, inhibition of radioligand binding
Sequence of dopamine D1 receptor (Homo sapiens (Human)) (P21728 whole entry, form in doubt): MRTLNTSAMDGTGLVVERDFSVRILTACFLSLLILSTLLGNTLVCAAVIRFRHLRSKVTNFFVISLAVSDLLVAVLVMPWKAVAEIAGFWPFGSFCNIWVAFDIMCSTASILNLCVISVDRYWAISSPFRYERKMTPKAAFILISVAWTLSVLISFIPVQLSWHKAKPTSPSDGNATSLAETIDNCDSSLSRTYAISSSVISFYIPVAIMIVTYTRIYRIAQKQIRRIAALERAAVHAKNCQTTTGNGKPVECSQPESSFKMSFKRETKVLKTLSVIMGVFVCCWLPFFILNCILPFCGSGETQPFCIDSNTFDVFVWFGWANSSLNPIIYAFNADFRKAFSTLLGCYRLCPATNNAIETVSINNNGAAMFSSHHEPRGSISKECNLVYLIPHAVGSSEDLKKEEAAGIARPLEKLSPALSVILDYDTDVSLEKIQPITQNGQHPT

Molecule: GO-203 (peptide)
- % inhibition of proliferation, H1975 lung cancer cells, 5 µM peptide daily, viable cells by trypan blue [1]: 75.8%
- % inhibition of proliferation, ZR-75-1 breast cancer cells, 5 µM peptide daily, viable cells by trypan blue [1]: 44%

Molecule: Ac-[dR][dR][dR][dR][dR][dR][dR][dR][dR][dC][dQ][dC][dR][dR][dK][dN]-NH2 (cysteine pairing not given here) [GO-203-2]
- % Inhibition of cell viability, A549 NSCLC, 5 µM [2]: 75.4%
- % Inhibition of cell viability, H1975 NSCLC, 5 µM [2]: 52.9%
- % Inhibition of cell viability, MCF-7 breast carcinoma, 5 µM [2]: 91.4%
- % Inhibition of cell viability, ZR-75-1 breast carcinoma, 5 µM [2]: 50.7%
- % inhibition of proliferation, H1975 lung cancer cells, 5 µM peptide daily, viable cells by trypan blue [2]: 63.6%
- % inhibition of proliferation, ZR-75-1 breast cancer cells, 5 µM peptide daily, viable cells by trypan blue [2]: 65.5%
- IC50 of inhibition of proliferation of a variety of human carcinoma cell lines in vitro [2]: 2 to 5 µM

B1: GO-203-2c (peptide)
peptide: Ac-[dR][dR][dR][dR][dR][dR][dR][dR][dR][dC][dQ][dC][dR][dR][dK][dN]-NH2
modifications: disulfide 10-12
SMILES: CC(=O)N[C@H](CCCNC(=N)N)C(=O)N[C@H](CCCNC(=N)N)C(=O)N[C@H](CCCNC(=N)N)C(=O)N[C@H](CCCNC(=N)N)C(=O)N[C@H](CCCNC(=N)N)C(=O)N[C@H](CCCNC(=N)N)C(=O)N[C@H](CCCNC(=N)N)C(=O)N[C@H](CCCNC(=N)N)C(=O)N[C@H](CCCNC(=N)N)C(=O)N[C@@H]1CSSC[C@H](C(=O)N[C@H](CCCNC(=N)N)C(=O)N[C@H](CCCNC(=N)N)C(=O)N[C@H](CCCCN)C(=O)N[C@H](CC(N)=O)C(N)=O)NC(=O)[C@@H](CCC(N)=O)NC1=O
- IC50 [3]: 10.5 µM
- IC50 of inhibition of proliferation of a variety of human carcinoma cell lines in vitro [1]: 2 to 5 µM

— patent US20140322332A1 (GENUS ONCOLOGY, published 2014)
